From publication PMC9973270, “RdmA Is a Key Regulator in Autoinduction of DSF Quorum Quenching in Pseudomonas nitroreducens HS-18” (mBio, 2022)

Columns and labels:
RdmA = target: T1, RdmA (Pseudomonas nitroreducens, UniProt A0ABS0KS77); assay: EMSA, inhibition of RdmA binding to biotin-labelled dmgA promoter; conditions: RdmA 2 uM preincubated with DSF 30 min at 30 C before promoter fragment F1 (30 min, 22 C); solvent methanol
T1 construct: gene I5I61_25840; full length, 206 residues; N-terminal His6 tag, vector pET32a, expressed in E. coli BL21(DE3); dimer proposed
T1 sequence (A0ABS0KS77 1-206): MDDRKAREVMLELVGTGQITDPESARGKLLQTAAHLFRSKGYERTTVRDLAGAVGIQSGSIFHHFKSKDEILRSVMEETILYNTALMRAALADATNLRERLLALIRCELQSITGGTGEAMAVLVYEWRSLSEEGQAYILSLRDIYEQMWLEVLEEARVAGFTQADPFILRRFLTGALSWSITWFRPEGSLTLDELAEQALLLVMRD

[1] = test system: T2, RdmA (Pseudomonas nitroreducens HS-18), ORF:ff03b8a4; assay: EMSA; conditions: LightShift chemiluminescent EMSA kit (buffer per manufacturer; pH and salt not stated), 10 uL, 2 nM biotin-DNA (20 fmol; Fig 5 legend says 10 nM), 0-4 uM RdmA …
T2 sequence: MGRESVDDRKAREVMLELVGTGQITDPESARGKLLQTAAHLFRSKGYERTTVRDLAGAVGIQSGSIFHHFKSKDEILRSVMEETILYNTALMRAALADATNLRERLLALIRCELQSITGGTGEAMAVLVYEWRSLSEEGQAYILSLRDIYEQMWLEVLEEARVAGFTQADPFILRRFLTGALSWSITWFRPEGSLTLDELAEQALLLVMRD

Molecule	concentration giving complete inhibition of DNA binding (RdmA) [mM]	binding [1]
CC(C)CCCCCCC/C=C\C(=O)O [DSF, cis-11-methyl-2-dodecenoic acid]	0.9	–
GCTTTCTCTCCCCATGGGTCCCATCTGGCCACCTTGCTCAGGGCAATTCATCGAATCGCCCCGCAAGTGCTTGTGTTGTCTGACGAAATGTAAGCCCGCGAGTGCCAACCA (double strand) [PdmgA F4]	–	no binding
GCTTTCTCTCCCCATGGGTCCCATCTGGCCACCTTGCTCAGGGCAATTCATCGAATCGCCCCGCAAGTGCTTGTGTTGTCTGACGAAATGTAAGCCCGCGAGTGCCAACCAAGCAAGCGCTTGG (double strand) [PdmgA F3]	–	binds more weakly
GCTTTCTCTCCCCATGGGTCCCATCTGGCCACCTTGCTCAGGGCAATTCATCGAATCGCCCCGCAAGTGCTTGTGTTGTCTGACGAAATGTAAGCCCGCGAGTGCCAACCAAGCAAGCGCTTGGCCATCCAATGGTTGGGGTAGTCATCGACTCGGGGCTTTTCAACCAAGCGCTTGCT (double strand) [PdmgA F2]	–	binds more weakly
